Assay [1] addresses ribosomes (mono- and poly-ribosomes) of HEK293 cells (human (endogenous in HEK293)).
Assay [2] addresses di-ribosome translation complex stalled on a poly(A)-containing transcript in rabbit reticulocyte lysate (rabbit (endogenous in reticulocyte lysate)). Nature of the assay: pull-down + co-sedimentation; poly(A)-containing transcript translated in RRL supplemented with FLAG-tagged ZNF598; translation complexes affinity purified via the Twin-Strep tag of the nascent chain (StrepTactin, RNC buffer: 50 mM HEPES pH 7.6, 100 mM KOAc, 5 mM Mg(OAc)2, biotin elution), then sucrose gradient; immunoblot for ZNF598, uL2, eS24. (In general: A western blot detects proteins with antibodies after separation by electrophoresis.)

B1: endogenous ZNF598 (enzyme)
chain: MAAAGGAEGRRAALEAAAAAAPERGGGSCVLCCGDLEATALGRCDHPVCYRCSTKMRVLCEQRYCAVCREELRQVVFGKKLPAFATIPIHQLQHEKKYDIYFADGKVYALYRQLLQHECPRCPELPPFSLFGDLEQHMRRQHELFCCRLCLQHLQIFTYERKWYSRKDLARHRMQGDPDDTSHRGHPLCKFCDERYLDNDELLKHLRRDHYFCHFCDSDGAQDYYSDYAYLREHFREKHFLCEEGRCSTEQFTHAFRTEIDLKAHRTACHSRSRAEARQNRHIDLQFSYAPRHSRRNEGVVGGEDYEEVDRYSRQGRVARAGTRGAQQSRRGSWRYKREEEDREVAAAVRASVAAQQQEEARRSEDQEEGGRPKKEEAAARGPEDPRGPRRSPRTQGEGPGPKETSTNGPVSQEAFSVTGPAAPGCVGVPGALPPPSPKLKDEDFPSLSASTSSSCSTAATPGPVGLALPYAIPARGRSAFQEEDFPALVSSVPKPGTAPTSLVSAWNSSSSSKKVAQPPLSAQATGSGQPTRKAGKGSRGGRKGGPPFTQEEEEDGGPALQELLSTRPTGSVSSTLGLASIQPSKVGKKKKVGSEKPGTTLPQPPPATCPPGALQAPEAPASRAEGPVAVVVNGHTEGPAPARSAPKEPPGLPRPLGSFPCPTPQEDFPALGGPCPPRMPPPPGFSAVVLLKGTPPPPPPGLVPPISKPPPGFSGLLPSPHPACVPSPATTTTTKAPRLLPAPRAYLVPENFRERNLQLIQSIRDFLQSDEARFSEFKSHSGEFRQGLISAAQYYKSCRDLLGENFQKVFNELLVLLPDTAKQQELLSAHTDFCNREKPLSTKSKKNKKSAWQATTQQAGLDCRVCPTCQQVLAHGDASSHQALHAARDDDFPSLQAIARIIT
B1: in assay [1], the ubiquitinated eS10 (immunoblot) in HEK293 cells pre-treated 15 min with low concentrations of anisomycin, emetine or didemnin B was found to be 10%.

B2: ZNF598-TEV-3xFlag (human) (enzyme)
chain: B1 chain
Regarding B2, in assay [2], the percent of ZNF598 co-fractionating with ribosomes fell in the range of 70 to 80%.

(Values after publication PMC6224477.)
